Source: paper PMC3624760

Columns and labels:
[1] = target: DNA polymerase beta D160N (UniProt P06746 1-335, D160N); assay: active site titration
DNA polymerase beta WT = DNA polymerase beta WT (UniProt P06746 1-335); assay: active site titration

B1: 1 bp-gap (dsDNA)
DNA 1: CGCGCCAATCGAGCCATGTCGT
DNA 2: GTCAACGACCCACCATTCAAGA
DNA 3: TCTTGAATGGTGGGTCGTTGACGACGACATGGCTCGATTGGCGCG
- Kd [1]: 21 nM
- Kd (DNA polymerase beta WT): 16 nM
